Data: patent publication US5777073
pKd: −log10 of the molar value. Like-named read-outs stand apart in the source and are kept apart here. Each block holds one substance with its values, some of them ahead of it.

How the values were obtained:
[1] = target: CRF receptors on rat anterior pituitary cells (rat)
[2] = target: CRF receptors on rat anterior pituitary cells (rat); remark: listed apart in the source
[3] = target: CRF receptors on rat anterior pituitary cells (rat); remark: listed apart in the source
[4] = target: CRF-RA; test: binding assay
[5] = target: CRF receptors on rat anterior pituitary cells (rat); remark: listed apart in the source
[6] = target: CRF receptors on rat anterior pituitary cells (rat); remark: listed apart in the source
[7] = target: CRF receptors on rat anterior pituitary cells (rat); remark: listed apart in the source
[8] = target: CRF receptors on rat anterior pituitary cells (rat); remark: listed apart in the source
[9] = target: hCRF-RA1 (human) (UniProt P34998); test: radioligand binding assay
[10] = target: CRF receptors on rat anterior pituitary cells (rat); remark: listed apart in the source
[11] = target: CRF receptors on rat anterior pituitary cells (rat); remark: listed apart in the source
[12] = target: CRF receptors on rat anterior pituitary cells (rat); remark: listed apart in the source
[13] = target: CRF receptors on rat anterior pituitary cells (rat); remark: listed apart in the source
[14] = target: CRF receptors on rat anterior pituitary cells (rat); remark: listed apart in the source
[15] = target: CRF receptors on rat anterior pituitary cells (rat); remark: listed apart in the source
[16] = target: CRF receptors on rat anterior pituitary cells (rat); remark: listed apart in the source
[17] = target: CRF receptors on rat anterior pituitary cells (rat); remark: listed apart in the source
[18] = target: CRF receptors on rat anterior pituitary cells (rat); remark: listed apart in the source
[19] = target: CRF receptors on rat anterior pituitary cells (rat); remark: listed apart in the source
[20] = target: CRF receptors on rat anterior pituitary cells (rat); remark: listed apart in the source
[21] = target: CRF receptors on rat anterior pituitary cells (rat); remark: listed apart in the source
[22] = target: CRF receptors on rat anterior pituitary cells (rat); remark: listed apart in the source
[23] = target: CRF receptors on rat anterior pituitary cells (rat); remark: listed apart in the source

in vitro biopotency: inhibition of ACTH secretion (times the Standard) [1]: 80.3
Substance: (cyclo 30-33) D-Phe^12, Nle^21,38, Glu^30, D-His^32, Lys^33 !-r/hCRF(12-41) (peptide)

pKd [9]: 8.70
Substance: (cyclo 30-33) I^125 -D-Tyr^12, Glu^30, Lys^33, Nle^21,38 !-r/hCRF(12-41) (peptide)

in vitro biopotency: inhibition of ACTH secretion (times the Standard) [11]: 34
Substance: (cyclo 30-33) Ac-Leu^10, D-Phe^12, Nle^21,38, Glu^30, Lys^33 !-r/hCRF(10-41) (peptide)

in vitro biopotency: inhibition of ACTH secretion (times the Standard) [14]: 7.3
Substance: (cyclo 28-32) D-Phe^12, Nle^21,38, Glu^28, Lys^32 !-r/hCRF(12-41) (peptide)

in vitro biopotency: inhibition of ACTH secretion (times the Standard) [15]: 16
Substance: (cyclo 30-33) D-Phe^12, Nle^21,38, Glu^30, D-His^32, Lys^33, CML^37 !-r/hCRF(12-41) (peptide)

in vitro biopotency: inhibition of ACTH secretion (times the Standard) [17]: 43
Substance: (cyclo 30-33) Ac-D-Phe^12, Nle^21,38, CML^27, Glu^30, D-His^32, Lys^33 !-r/hCRF(12-41) (peptide)

in vitro biopotency: inhibition of ACTH secretion (times the Standard) [18]: 4.5
Substance: (cyclo 30-33) D-Phe^12, CML^19, Nle^21,38, Glu^30, D-His^32, Lys^33 !-r/hCRF(12-41) (peptide)

in vitro biopotency: inhibition of ACTH secretion (times Peptide IV) [20]: 0.78
Substance: (cyclo 30-33) D-Phe^12, Nle^21,38, Glu^30, D-His^32, Lys^33 !-r/hCRF(11-41) (peptide)

The remaining lines, values behind:

Substance: (cyclo 30-33) D-Phe^12, CML^15, Nle^21,38, Glu^30, imBzlD-His^32, Lys^33 !-r/hCRF (12-41) (peptide)
in vitro biopotency: inhibition of ACTH secretion (times the Standard) [2]: 23.5

Substance: (cyclo 29-33) D-Phe^12, Nle^21,38, Glu^29, Lys^33 -r/hCRF(12-41) (peptide)
in vitro biopotency: inhibition of ACTH secretion (times the Standard) [3]: 7.15

Substance: (cyclo 30-33) D-Tyr^12, Nle^21,38, Glu^30, Lys^33 !-r/hCRF(12-41) (peptide)
pKd [4]: 8.70 | in vitro biopotency: inhibition of ACTH secretion (times the Standard) [5]: 5.6

Substance: (cyclo 30-33) D-Phe^12, Nle^21,38, CML^27, Glu^30, D-His^32, Lys^33 !-r/hCRF(12-41) (peptide)
in vitro biopotency: inhibition of ACTH secretion (times the Standard) [6]: 53.6

Substance: (cyclo 30-33) D-Phe^12, Nle^21,38, Glu^30, Lys^33 !-r/hCRF(12-41) (peptide)
in vitro biopotency: inhibition of ACTH secretion (times the Standard) [7]: 33 | intrinsic CRF activity [8]: < 3%

Substance: (cyclo 29-32) D-Leu^11, Nle^17, Glu^29, Lys^32 !-sauvagine(11-40) (peptide)
in vitro biopotency: inhibition of ACTH secretion (times the Standard) [10]: 22

Substance: (cyclo 30-33) D-Phe^12, Nle^21,38, Glu^30, D-2Nal^32, Lys^33 !-r/hCRF(12-41) (peptide)
in vitro biopotency: inhibition of ACTH secretion (times the Standard) [12]: 18

Substance: (bicyclo 20-23, 30-33) D-Phe^12, Nle^21,38, D-Ala^22, LyS^23,33, Glu^30, D-His^32 !-r/hCRF(12-41) (peptide)
in vitro biopotency: inhibition of ACTH secretion (times the Standard) [13]: 8.61

Substance: (cyclo 30-33) Ac-Thr^11, D-Phe^12, Nle^21,38, Glu^30, Lys^33 !-r/hCRF(11-41) (peptide)
in vitro biopotency: inhibition of ACTH secretion (times the Standard) [11]: 64

Substance: (cyclo 30-33) Ac-Thr^11, D-Phe^12, Nle^21,38, CML^27, Glu^30, D-His^32, Lys^33 !-r/hCRF(11-41) (peptide)
in vitro biopotency: inhibition of ACTH secretion (times Peptide IV) [16]: 1.4

Substance: (cyclo 28-32) D-Phe^12, Nle^21,38, Glu^28, D-Gln^30, Lys^32 !-r/hCRF(12-41) (peptide)
in vitro biopotency: inhibition of ACTH secretion (times the Standard) [19]: 3.69

Substance: (cyclo 30-33) D-Phe^12, Nle^18,21, Glu^30, D-Ala^32, Lys^33 !-Carp Urotensin I (12-41) (peptide)
in vitro biopotency: inhibition of ACTH secretion (times Peptide IV) [21]: 0.831

Substance: (cyclo 30-33) D-Phe^12, Nle^21,38, Glu^30, Lys^33 !-r/hCRF(11-41) (peptide)
in vitro biopotency: inhibition of ACTH secretion (times the Standard) [22]: 40.3

Substance: (cyclo 30-33) Ac-Asp^9, D-Phe^2, Nle^21,38, CML^27, Glu^30, D-His^32, Lys^33 -r/hCRF(9-41) (peptide)
in vitro biopotency: inhibition of ACTH secretion (times Peptide IV) [23]: 2.22
